Measured values published in US9192657B2, “Activated protein C variants with normal cytoprotective activity but reduced anticoagulant activity” (The Scripps Research Institute, dated 2015).

Legend:
[1] = molecular target: T1, endothelial protein C receptor (EPCR) on cells (Homo sapiens (Human), UniProt Q9UNN8); test: cell-based or functional assay
T1 sequence: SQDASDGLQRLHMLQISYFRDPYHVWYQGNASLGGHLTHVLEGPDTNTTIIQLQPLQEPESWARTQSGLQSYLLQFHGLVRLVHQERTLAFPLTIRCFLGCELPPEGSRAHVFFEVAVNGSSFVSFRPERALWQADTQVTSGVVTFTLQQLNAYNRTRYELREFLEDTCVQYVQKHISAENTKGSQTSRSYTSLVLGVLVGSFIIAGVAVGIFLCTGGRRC

[2] = molecular target: T2, protease activated receptor-1 (PAR-1) (Homo sapiens (Human), UniProt P25116); test: cell-based or functional assay
T2 sequence: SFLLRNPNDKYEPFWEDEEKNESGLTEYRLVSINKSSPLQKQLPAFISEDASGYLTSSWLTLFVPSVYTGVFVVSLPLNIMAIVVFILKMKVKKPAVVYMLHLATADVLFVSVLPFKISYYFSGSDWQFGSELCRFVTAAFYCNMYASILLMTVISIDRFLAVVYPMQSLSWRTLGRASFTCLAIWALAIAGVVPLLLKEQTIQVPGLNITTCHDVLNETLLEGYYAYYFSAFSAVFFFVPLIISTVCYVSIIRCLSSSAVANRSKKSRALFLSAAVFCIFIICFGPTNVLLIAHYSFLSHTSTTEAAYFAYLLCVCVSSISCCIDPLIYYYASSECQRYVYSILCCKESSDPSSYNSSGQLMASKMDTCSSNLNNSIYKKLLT

[3] = molecular target: T3, endothelial protein C receptor (EPCR), as in the binding assays (Homo sapiens (Human), UniProt Q9UNN8); test: apparent Kd; binding to immobilized soluble EPCR and to K293 cells transfected with wtEPCR (format of the value not told)
T3 sequence: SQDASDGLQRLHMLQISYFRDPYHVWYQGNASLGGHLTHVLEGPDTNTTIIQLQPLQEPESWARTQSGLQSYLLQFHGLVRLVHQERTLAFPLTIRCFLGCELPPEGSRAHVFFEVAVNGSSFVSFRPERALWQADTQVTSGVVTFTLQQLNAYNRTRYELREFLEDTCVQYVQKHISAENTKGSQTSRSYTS

[4] = molecular target: T1, endothelial protein C receptor (EPCR) …; test: cell-based or functional assay; remark: listed apart in the source
[5] = molecular target: T2, protease activated receptor-1 (PAR-1); test: cell-based or functional assay; remark: listed apart in the source
factor Va = factor Va (human, UniProt P12259); test: cell-based or functional assay
[6] = molecular target: T1, endothelial protein C receptor (EPCR) …; test: cell-based or functional assay; remark: listed apart in the source
[7] = molecular target: T2, protease activated receptor-1 (PAR-1); test: cell-based or functional assay; remark: listed apart in the source

B1: RR229/230AA plus KKK191-193AAA-APC (enzyme)
chain: ANSFLEELRHSSLERECIEEICDFEEAKEIFQNVDDTLAFWSKHVDGDQCLVLPLEHPCASLCCGHGTCIDGIGSFSCDCRSGWEGRFCQREVSFLNCSLDNGGCTHYCLEEVGWRRCSCAPGYKLGDDLLQCHPAVKFPCGRPWKRMEKKRSHLKRDTEDQEDQVDPRLIDGKMTRRGDSPWQVVLLDSAAALACGAVLIHPSWVLTAAHCMDESKKLLVRLGEYDLAAWEKWELDLDIKEVFVHPNYSKSTTDNDIALLHLAQPATLSQTIVPICLPDSGLAERELNQAGQETLVTGWGYHSSREKEAKRNRTFVLNFIKIPVVPHNECSEVMSNMVSENMLCAGILGDRQDACEGDSGGPMVASFHGTWFLVGLVSWGEGCGLLHNYGVYTKVSRYLDWIHGHIRDKEAPQKSWAP
half-maximum inhibition of staurosporine-induced endothelial cell apoptosis (Example 5) [1]: 0.7 nM | half-maximum inhibition of staurosporine-induced endothelial cell apoptosis (Example 5) [2]: 0.7 nM | Kd [3]: 29 nM

B2: KKK191-193AAA-APC (enzyme)
chain: ANSFLEELRHSSLERECIEEICDFEEAKEIFQNVDDTLAFWSKHVDGDQCLVLPLEHPCASLCCGHGTCIDGIGSFSCDCRSGWEGRFCQREVSFLNCSLDNGGCTHYCLEEVGWRRCSCAPGYKLGDDLLQCHPAVKFPCGRPWKRMEKKRSHLKRDTEDQEDQVDPRLIDGKMTRRGDSPWQVVLLDSAAALACGAVLIHPSWVLTAAHCMDESKKLLVRLGEYDLRRWEKWELDLDIKEVFVHPNYSKSTTDNDIALLHLAQPATLSQTIVPICLPDSGLAERELNQAGQETLVTGWGYHSSREKEAKRNRTFVLNFIKIPVVPHNECSEVMSNMVSENMLCAGILGDRQDACEGDSGGPMVASFHGTWFLVGLVSWGEGCGLLHNYGVYTKVSRYLDWIHGHIRDKEAPQKSWAP
half-maximum inhibition of staurosporine-induced apoptosis (EA.hy926 cells, Apopercentage dye) [1]: 0.14 nM | half-maximum inhibition of staurosporine-induced apoptosis (Eahy926 cells, Apopercentage staining) [1]: 0.2 nM | reduction of activated caspase-3-positive endothelial cells after staurosporine [1]: ~70% | half-maximum inhibition of staurosporine-induced apoptosis (EA.hy926 cells, Apopercentage dye) [2]: 0.14 nM | half-maximum inhibition of staurosporine-induced apoptosis (Eahy926 cells, Apopercentage staining) [2]: 0.2 nM | reduction of activated caspase-3-positive endothelial cells after staurosporine [2]: ~70% | cytoprotective activity (% wt-APC) [4]: 120 % wt-APC | cytoprotective activity (% wt-APC) [5]: 120 % wt-APC | anticoagulant activity (% rwt-APC), APTT clotting assay in human plasma (factor Va): 4.6 % rwt-APC | cytoprotective activity (% rwt-APC), from the concentrations for half-maximal inhibition of apoptosis [6]: 114 % rwt-APC | cytoprotective activity (% rwt-APC), from the concentrations for half-maximal inhibition of apoptosis [7]: 114 % rwt-APC

B3: R306A/K311A/R312A/R314A-APC (enzyme)
chain: ANSFLEELRHSSLERECIEEICDFEEAKEIFQNVDDTLAFWSKHVDGDQCLVLPLEHPCASLCCGHGTCIDGIGSFSCDCRSGWEGRFCQREVSFLNCSLDNGGCTHYCLEEVGWRRCSCAPGYKLGDDLLQCHPAVKFPCGRPWKRMEKKRSHLKRDTEDQEDQVDPRLIDGKMTRRGDSPWQVVLLDSKKKLACGAVLIHPSWVLTAAHCMDESKKLLVRLGEYDLRRWEKWELDLDIKEVFVHPNYSKSTTDNDIALLHLAQPATLSQTIVPICLPDSGLAERELNQAGQETLVTGWGYHSSAEKEAAANATFVLNFIKIPVVPHNECSEVMSNMVSENMLCAGILGDRQDACEGDSGGPMVASFHGTWFLVGLVSWGEGCGLLHNYGVYTKVSRYLDWIHGHIRDKEAPQKSWAP
cytoprotective activity (% wt-APC), staurosporine-induced apoptosis of Eahy926 cells [4]: < 1 % wt-APC | cytoprotective activity (% wt-APC), staurosporine-induced apoptosis of Eahy926 cells [5]: < 1 % wt-APC
